24 molecules from patent US20240270866A1 (Alector, published 2024) can be followed below.

By Kd is commonly meant the equilibrium constant for the complex coming apart.

Positions count from the first letter of the chain named.

The labels stand for the following.
B1: SA-28 Fab (Fab, V domains shown)
VH: QVQLQESGPGLVKPSQTLSLTCTVSGGSISSGGYYWSWIRQHPGKGLEWIGNIYYSGSTYYNPSLKSRVTISVDTSKNQFSLKLSSVTAADTAVYYCARDSDTSWGGFDYWGQGTLVTVSS
VL: EIVLTQSPGTLSLSPGERATLSCRASQSVRSSYLAWYQQKPGQAPRLLIYGASSRATGIPDRFSGSGSGTDFTLTISRLEPEDFAVYYCQQAGVSPYTFGGGTKVEIK
notes: papain Fab
B2: SA-36 Fab (Fab, V domains shown)
VH: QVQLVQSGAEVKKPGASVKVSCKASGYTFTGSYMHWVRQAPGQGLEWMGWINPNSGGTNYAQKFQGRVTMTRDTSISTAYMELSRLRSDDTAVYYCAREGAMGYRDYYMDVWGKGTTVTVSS
VL: EIVLTQSPATLSLSPGERATITCQASQDISSYLAWYQQKPGQAPRLLIYDASNRATGIPARFSGSGSGTDFTLTISSLEPEDFAVYYCQQRTHYPWTFGGGTKVEIK
notes: papain Fab
B3: SA-35 Fab (Fab, V domains shown)
VH: QVQLVQSGAEVKKPGASVKVSCKASGYTFTSYYMHWVRQAPGQGLEWMGIINPSGGSTSYAQKFQGRVTMTRDTSTSTVYMELSSLRSEDTAVYYCAREAGYDIKGFDYWGQGTLVTVSS
VL: DIQMTQSPSTLSASVGDRVTITCRASQSISSWLAWYQQKPGKAPKLLIYKASSLESGVPSRFSGSGSGTEFTLTISSLQPDDFATYYCQQYGSFPLTFGGGTKVEIK
B4: SA-56 Fab (Fab, V domains shown)
VH: EVQLVESGGGLVKPGGSLRLSCAASGFTFSSYSMNWVRQAPGKGLEWVSSISSSSSYIYYADSVKGRFTISRDNAKNSLYLQMNSLRAEDTAVYYCARGVETYSGPNWFDPWGQGTLVTVSS
VL: DIQMTQSPSSVSASVGDRVTITCRASQGISSWLAWYQQKPGKAPKLLIYAASSLQSGVPSRFSGSGSGTDFTLTISSLQPEDFATYYCQQAIYFPITFGGGTKVEIK
notes: papain Fab; also called SA-56 (parental)
B5: SA-39 Fab (Fab, V domains shown)
VH: QVQLVQSGAEVKKPGASVKVSCKASGYTFTSYYMVWVRQAPGQGLEWMGIINPSGGSTSYAQKFQGRVTMTRDTSTSTVYMELSSLRSEDTAVYYCAREGGYGYRAYPYGMDVWGQGTTVTVSS
VL: DIQMTQSPSSLSASVGDRVTITCQASQDISNSLNWYQQKPGKAPKLLIYDASNLETGVPSRFSGSRSGTDFTFTISSLQPEDIATYYCQQVIILPLTFGGGTKVEIK
notes: papain Fab
B6: SA-38 Fab (Fab, V domains shown)
VH: QVQLQESGPGLVKPSQTLSLTCTVSGGSISSGGYYWSWIRQHPGKGLEWIGSIYYSGSTYYNPSLKSRVTISVDTSKNQFSLKLSSVTAADTAVYYCAREGAYSLYVNWFDPWGQGTLVTVSS
VL: EIVMTQSPATLSVSPGERATLSCRASQSVSSSLAWYQQKPGQAPRLLIFGASTRATGIPARFSGSGSGTEFTLTISSLQSEDFAVYYCQQYDNYPPITFGGGTKVEIK
notes: papain Fab
B7: SA-16 Fab (Fab, V domains shown)
VH: QVQLQQWGAGLLKPSETLSLTCAVYGGSFSGYYWSWIRQPPGKGLEWIGEIDHSGSTNYNPSLKSRVTISVDTSKNQFSLKLSSVTAADTAVYYCARDLGPPGPHLDVWGQGTMVTVSS
VL: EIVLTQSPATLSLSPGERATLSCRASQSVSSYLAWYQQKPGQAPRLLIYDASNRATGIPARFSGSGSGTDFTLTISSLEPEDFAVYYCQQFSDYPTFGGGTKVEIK
notes: papain Fab
B8: SA-19-83 Fab (Fab, V domains shown)
VH: QVQLVESGGGVVQPGRSLRLSCAASGFTFDSYLMHWVRQAPGKGLEWVASIIYDGSNKYYADSVKGRFTISRDNSKNTLYLQMNSLRAEDTAVYYCASVRTKYTLGFAFDIWGQGTMVTVSS
VL: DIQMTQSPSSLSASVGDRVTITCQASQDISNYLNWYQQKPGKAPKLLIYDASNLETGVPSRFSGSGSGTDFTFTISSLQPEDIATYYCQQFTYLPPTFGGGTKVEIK
notes: papain Fab
B9: SA-19-84 Fab (Fab, V domains shown)
VH: B8 VH with D30S, L33G, S50V, I52A, Y59L, S98R, V99T, R100Q, T101L
VL: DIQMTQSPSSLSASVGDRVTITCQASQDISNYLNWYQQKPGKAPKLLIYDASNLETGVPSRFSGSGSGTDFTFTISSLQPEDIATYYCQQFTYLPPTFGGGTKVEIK
notes: papain Fab
B10: SA-56-94 Fab (Fab, V domains shown)
VH: EVQLVESGGGVVQPGRSLRLSCAASGFTFSYYGMSWVRQAPGKGLEWVASIWVDGSNKYYADSVKGRFTISRDNSKNTLYLQMNSLRAEDTAVYYCAVGTETYSGPNWFDPWGQGTLVTVSS
VL: B4 VL
notes: papain Fab; also called SA-94
B11: SA-56-90 Fab (Fab, V domains shown)
VH: B10 VH with E1Q, F27S, Y31H, N84D, V98R, T100V
VL: B4 VL
notes: papain Fab; also called SA-90
B12: SA-56-89 Fab (Fab, V domains shown)
VH: B10 VH with R16G, I70V, N84D, V98R, T100V
VL: B4 VL
notes: papain Fab
B13: SA-56-96 Fab (Fab, V domains shown)
VH: B10 VH with V5L, Y31S, G33A, S35G, S50V, N57L, V98T, T100R
VL: B4 VL
notes: papain Fab
B14: SA-56-92 Fab (Fab, V domains shown)
VH: B10 VH with N84D, V98T, T100V
VL: B4 VL
notes: papain Fab
B15: SA-56-85 Fab (Fab, V domains shown)
VH: B10 VH with V5L, R19G, F27S, N77S, V98R, T100V
VL: B4 VL with I106N, K107Q
notes: papain Fab
B16: SA-56-95 Fab (Fab, V domains shown)
VH: B10 VH with V5L, S30A, Y31H, S35A, S50V, N57P, G99A, T100R
VL: B4 VL
notes: papain Fab
B17: SA-56-88 Fab (Fab, V domains shown)
VH: B10 VH with V64A, V98E, T100K
VL: B4 VL
notes: papain Fab
B18: SA-56-86 Fab (Fab, V domains shown)
VH: B10 VH with E1Q, R16G, N57S, V98R, T100V
VL: B4 VL
notes: papain Fab
B19: SA-56-91 Fab (Fab, V domains shown)
VH: B10 VH with S30A, Y31H, S35A, V98T, G99A, T100V
VL: B4 VL
notes: papain Fab
B20: SA-56-93 Fab (Fab, V domains shown)
VH: B10 VH with V5L, T78A, G99S, T100R
VL: B4 VL
notes: papain Fab
B21: SA-56-87 Fab (Fab, V domains shown)
VH: B10 VH with V98F, T100L
VL: B4 VL
notes: papain Fab
B22: SA-5-57 Fab (Fab, V domains shown)
VH: EVQLLESGGGLVQPGGSLRLSCAASGFTFDSYAMSWVRQAPGKGLEWVSATSGGGGSTYHADPVKGRFTISRDNSKNTLYLQMNSLRAEDTAVYYCAKDITDDFWSVTPPYFDLWGRGTLVTVSS
VL: B4 VL with M4L, G28D, A91G, I92Y, Y93I, I96R
notes: papain Fab
B23: SA-5-59 Fab (Fab, V domains shown)
VH: EVQLLESGGGLVQPGGSLRLSCAASGFTFDNYAMSWVRQAPGEGLEWVSAVSGSGGSTYYADSVRGRFTISRDNSKNTLYLQMDSLRAEDTAVYYCAKDTGIDFWARTPPYFDLWGRGTLVTVSS
VL: B4 VL with M4L, G28D, A91G, I92Y, Y93I, I96R
notes: papain Fab
B24: SA-5-58 Fab (Fab, V domains shown)
VH: B22 VH with T51I, G54S, P63S, I100T, T101G, D102I, D103S, F104L
VL: B4 VL with M4L, G28D, A91G, I92Y, Y93I, I96R
notes: papain Fab

For one assay, the target named is T1, human SIRPA Fc fusion antigen (human, UniProt P78324 31-373).
T1 construct: heterologous signal peptide; not shown: human IgG1 Fc
Description: ForteBio Fab monovalent. In general terms: Biolayer interferometry detects binding as a change in optical thickness at a sensor tip.
On to B1, for which binding was characterised by a dissociation constant (Kd) of 486 nM.

For the molecule B2, binding was put at a Kd of 2070 nM.

In the case of B3, binding was put at a Kd of 497 nM.

B4: the affinity, expressed as Kd, was 301 nM.

Molecule B5 displayed a Kd of 100 nM.

Regarding B6, the Kd was 281 nM.

On to B7, for which the Kd is 257 nM.

For another assay, the target named is T2, biotinylated human SIRPA (monomer) (human, UniProt P78324 31-373, limits assumed, biotinylated).
T2 construct: monomer made by IdeS cleavage of a SIRPA Fc fusion; also called recombinant human SIRPA
Description: MSD-SET, Fab, equilibrium.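 Also: solution equilibrium titration, free antigen captured on antibody-coated MSD plates and detected by electrochemiluminescence with labeled streptavidin, percent free antigen versus titrated antibody fit to quadratic model for KD.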
Description: Antibodies (20 nM in PBS) were coated onto standard bind MSD-ECL plates overnight at 4° C. or at room temperature for 30 min. Plates were then blocked with 1% BSA for 30 min with shaking at 700 rpm, followed by three washes with wash buffer (PBSF+0.05% Tween 20). SET samples were applied and incubated on the plates for 150s with shaking at 700 rpm followed by one wash. Antigen captured on a plate was detected with 250 ng/ml sulfotag-labeled streptavidin in PBSF by incubation on the plate for 3 min. The plates were washed three times with wash buffer and then read on the MSD Sector Imager 2400 instrument using 1× Read Buffer T with surfactant. The percent free antigen was plotted as a function of titrated antibody in Prism and fit to a quadratic equation to extract the KD. To improve throughput, liquid handling robots were used throughout MSD-SET experiments, including SET sample preparation.
B8 gave a Kd of 0.31 nM.

On to B9, for which the Kd amounted to 0.64 nM.

In turn, B10 displayed a dissociation constant Kd of 0.88 nM.

Regarding B11, the equilibrium dissociation constant (Kd) is 0.17 nM.

As for B12, binding was characterised by a dissociation constant (Kd) of 0.25 nM.

In turn, B13 yielded a Kd of 1.6 nM.

In turn, B14 had an equilibrium dissociation constant (Kd) of 0.35 nM.

B15 gave a Kd of 0.12 nM.

B16 returned a dissociation constant (Kd) of 0.52 nM.

For the molecule B17, the Kd is 0.16 nM.

B18 registered a Kd of 0.18 nM.

Molecule B19 came in with a Kd of 0.51 nM.

B20 yielded a dissociation constant Kd of 0.36 nM.

Consider B21, for which binding was characterised by a dissociation constant (Kd) of 0.17 nM.

In another assay the target is T1, human SIRPA Fc fusion antigen. Description: ForteBio Fab monovalent. The source holds these as a separate data set.
Description: Briefly, ForteBio affinity measurements were performed by loading immunoglobulins (IgGs) on-line onto AHQ sensors. Sensors were equilibrated off-line in assay buffer for 30 min and then monitored on-line for 60 seconds for baseline establishment. For avid binding measurement, sensors with loaded IgGs were exposed to 100 nM antigen (human SIRPA or SIRPβ1 Fc fusion) for 3 min, afterwards they were transferred to assay buffer for 3 min for off-rate measurement. […] Monovalent binding measurements were obtained by loading human SIRPA Fc fusion antigens to AHQ sensor and followed by exposure to 100 nM anti-SIRPA antibody Fab.
Additional monovalent measurements were made by loading biotinylated human SIRPA monomer to SA sensor followed by exposure to 100 nM Fab in solution. Kinetics data were fit using a 1:1 binding model in the data analysis software provided by ForteBio.
Molecule B8 displayed a Kd of 1.44 nM.

On to B9, for which the Kd was 2.02 nM.

The molecule B22 returned a Kd of 23.3 nM.

B4 registered a dissociation constant Kd of 206 nM.

B10: the Kd turned out to be 3.43 nM.

Turning to B11, the Kd was 1.11 nM.

With B12, binding was characterised by a dissociation constant (Kd) of 1.03 nM.

On to B13, for which the dissociation constant (Kd) came to 5.35 nM.

In turn, B14 yielded a Kd of 1.29 nM.

B15 came in with a Kd of 0.772 nM.

On to B16, for which binding was characterised by a dissociation constant (Kd) of 2.98 nM.

B17 showed a Kd of 0.836 nM.

B18 showed a dissociation constant Kd of 1.02 nM.

As to B19, the Kd stood at 1.64 nM.

B20: binding was characterised by a dissociation constant (Kd) of 2.34 nM.

Molecule B21 had a dissociation constant Kd of 1.1 nM.

For a further assay, the target named is T3, human SIRPβ1 Fc fusion antigen (human, UniProt O00241 30-371).
T3 construct: not shown: human IgG1 Fc
T3 sequence (O00241 30-371 limits assumed): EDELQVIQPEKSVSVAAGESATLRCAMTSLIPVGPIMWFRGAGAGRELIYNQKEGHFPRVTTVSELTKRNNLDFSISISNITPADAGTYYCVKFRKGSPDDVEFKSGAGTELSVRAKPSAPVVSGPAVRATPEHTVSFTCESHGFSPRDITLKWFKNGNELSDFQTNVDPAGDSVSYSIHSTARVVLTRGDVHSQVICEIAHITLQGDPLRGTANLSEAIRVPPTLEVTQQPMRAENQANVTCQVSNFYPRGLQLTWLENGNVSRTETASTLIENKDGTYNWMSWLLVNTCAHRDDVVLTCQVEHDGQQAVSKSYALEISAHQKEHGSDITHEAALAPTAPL
Put plainly: ForteBio Fab monovalent.
For the molecule B22, the binding result is “no binding (tested: 100 nM)”.

For the molecule B4, the binding result is “no binding (tested: 100 nM)”.

As for B10, the binding result is “no binding (tested: 100 nM)”.

As for B11, the binding result is reported as “no binding (tested: 100 nM)”.

With B12, the binding result is “no binding (tested: 100 nM)”.

As to B13, the binding result was “no binding (tested: 100 nM)”.

On to B14, for which the binding result is listed as “no binding (tested: 100 nM)”.

Turning to B15, the binding result is listed as “no binding (tested: 100 nM)”.

In the case of B16, the binding result is reported as “no binding (tested: 100 nM)”.

Consider B17, for which the binding result is recorded as “no binding (tested: 100 nM)”.

Take B19: the binding result is “no binding (tested: 100 nM)”.

B23: the binding result is “no binding (tested: 100 nM)”.

With B20, the binding result is given as “no binding (tested: 100 nM)”.

In the case of B24, the binding result is given as “no binding (tested: 100 nM)”.

With B21, the binding result is “no binding (tested: 100 nM)”.

Another assay has as its target human SIRPA W68A with C-terminal V5 tag on HEK-293T cells (human, UniProt P78324 31-504). Put plainly: flow cytometry, Fab on HEK-293T cells with the mutant.
Description: (§1) Epitope mapping of anti-SIRPA antibodies was performed using an alanine-scanning library created by shotgun mutagenesis of the human SIRPA cDNA sequence.
(§2) Antibodies were digested to generate Fabs, after which cells were incubated with Fabs diluted in 10% normal goat serum (NGS) (Sigma-Aldrich, St. Louis, MO). Prior to library screening, primary Fab concentrations were determined using an independent immunofluorescence titration curve against cells expressing wild type SIRPA to ensure that signals were within the linear range of detection. Fabs were detected using 7.5 μg/ml AlexaFluor488-conjugated secondary antibody (Jackson ImmunoResearch Laboratories, Westgrove, PA) in 10% NGS. Cells were washed twice with PBS and resuspended in Cellstripper (Cellgro, Manassas, VA) with 0.1% BSA (Sigma-Aldrich, St. Louis, MO). In some cases, higher stringency conditions were used, including increased pH, increased temperature, and increased dissociation time. Mean cellular fluorescence was detected using the Intellicyt high throughput flow cytometer (HTFC, Intellicyt, Albuquerque, NM). Fab reactivities against each mutant clone were calculated relative to wild-type SIRPA protein reactivity by subtracting the signal from mock-transfected controls, and normalizing to the signal from wild-type SIRPA transfected controls.
With B10, the “Binding Reactivity (% WT), mean” value came to 25.6 % WT.

Consider B11, for which the “Binding Reactivity (% WT), mean” value was found to be 19.3 % WT.

The next assay deals with human SIRPA R54A with C-terminal V5 tag on HEK-293T cells (human, UniProt P78324 31-504). The description is as above.
Description: as §1, §2
Take B10: the “Binding Reactivity (% WT), mean” value worked out at 2.9 % WT.

Regarding B11, the “Binding Reactivity (% WT), mean” value came to 1.7 % WT.

The target of another assay is human SIRPA D40A with C-terminal V5 tag on HEK-293T cells (human, UniProt P78324 31-504). Described as above.
Description: as §1, §2
Take B10: the “Binding Reactivity (% WT), mean” value came to 0.2 % WT.

As for B11, the “Binding Reactivity (% WT), mean” value was 0.4 % WT.
